# According to US4944948A, “EGF/Liposome gel composition and method” (Liposome Technology, Inc., priority 1989, dated 1990):
# Where two headings read alike, the source gives them in different places.
# How the values were obtained:
# [1] = 37° C., 25% human plasma/saline, 0.08 μm filter
# Description: Liposome formulations were evaluated in vitro by release rates of 125 I-rh-EGF into the receiver compartments of percutaneous absorption cells that were continuously perfused with 25% pooled human plasma/saline.
# A conventional two-chamber absorption cell, using a bath temperature of 37° C., was employed (Bronaugh). A 25 mm, 0.08 μm diameter Nuclepore (Pleasanton, Calif.) polycarbonate filter was used to separate the donor from the flow-through acceptor compartment. […] The ^125 I-rh-EGF preparation was mixed with an equal quantity of 25% pooled human plasma/isotonic saline and 200 μl aliquots were immediately applied to the donor compartments. Parafilm was used to occlude the donor compartment and prevent evaporative loss. The perfusate was collected by fraction collector into scintillation vials and mounted in a Packard TriCarg 20000. rh-EGF flux was calculated from the specific activity (DPM per μg peptide). Clearance rate half-lives were determined for individual percutaneous absorption cells as described below.
# In this single phase system, it is possible to determine the concentration of peptide remaining in the donor compartment by subtracting cumulative peptide in the measured in the receiver compartment from total peptide applied to the donor compartment. […]
# [2] = for % Lost (of total dose administered): from first order rate constants
# Description: The amount of radioactivity remaining in the injected eye was measured for up to 96 hours after injection (until at least 90% of the initial radioactivity had disappeared). An external NaI crystal detector/ratemeter (The Nucleus Model L) was placed directly over the eye and radioactivity measured for 2 minutes and recorded on a chart recorder. […] The mean chart deflection during each recording was taken as the measurement at that time point. The first reading was taken immediately after injection ("zero time") and subsequent measurements were converted to a percentage of this initial amount.
# Individual radioactivity versus time data were recorded for each animal, and the mean values for each animal group (N=4-6) were calculated.
# Each plot was used to calculate first order rate constants for EGF disappearance from the eye for each formulation by a non linear least squares fitting method (RSTRIP, MicroMath, Salt Lake City, Utah).
# At =A0 * e ^-kt or 1n(At)=1n (A0)-kt
# where k=0.693 / t1/2, the amount of EGF lost from the eye during any day can be calculated.
# [3] = rabbit, subconjunctival injection
smiles,measurement,setting,value
"CC[C@H](C)[C@@H]1NC(=O)[C@H](Cc2ccc(O)cc2)NC(=O)CNC(=O)[C@H](C(C)C)NC(=O)[C@H](C(C)C)NC(=O)[C@@H](NC(=O)[C@H](CC(N)=O)NC(=O)[C@@H]2CSSC[C@@H]3NC(=O)[C@H](Cc4ccc(O)cc4)NC(=O)CNC(=O)[C@H](CC(=O)O)NC(=O)[C@H](Cc4c[nH]cn4)NC(=O)[C@H](CO)NC(=O)[C@H](CC(C)C)NC(=O)[C@@H]4CCCN4C(=O)[C@@H](NC(=O)[C@H](CCC(=O)O)NC(=O)[C@H](CO)NC(=O)[C@H](CC(=O)O)NC(=O)[C@H](CO)NC(=O)[C@@H](N)CC(N)=O)CSSC[C@H](NC(=O)[C@H](C(C)C)NC(=O)CNC(=O)[C@H](CC(=O)O)NC(=O)[C@H](Cc4c[nH]cn4)NC(=O)[C@H](CC(C)C)NC3=O)C(=O)N[C@@H](CCSC)C(=O)N[C@@H](Cc3ccc(O)cc3)C(=O)N[C@@H]([C@@H](C)CC)C(=O)N[C@@H](CCC(=O)O)C(=O)N[C@@H](C)C(=O)N[C@@H](CC(C)C)C(=O)N[C@@H](CC(=O)O)C(=O)N[C@@H](CCCCN)C(=O)N[C@@H](Cc3ccc(O)cc3)C(=O)N[C@@H](C)C(=O)N2)CSSC[C@@H](C(=O)N[C@@H](CCC(N)=O)C(=O)N[C@@H](Cc2ccc(O)cc2)C(=O)N[C@@H](CCCNC(=N)N)C(=O)N[C@@H](CC(=O)O)C(=O)N[C@@H](CC(C)C)C(=O)N[C@@H](CCCCN)C(=O)N[C@@H](Cc2c[nH]c3ccccc23)C(=O)N[C@@H](Cc2c[nH]c3ccccc23)C(=O)N[C@@H](CCC(=O)O)C(=O)N[C@@H](CC(C)C)C(=O)N[C@@H](CCCNC(=N)N)C(=O)O)NC(=O)[C@H](CCCNC(=N)N)NC(=O)[C@H](CCC(=O)O)NC(=O)CNC1=O [Free EGF, Epidermal Growth Factor]",Half-life of EGF release in vitro (slow phase for liposomes),[1],about 1.8 hours
same,% Lost (of total dose administered),"[2]; Day 1, includes initial burst",100%
same,% Lost (of total dose administered),[2]; Day 2,0%
same,% Lost (of total dose administered),[2]; Day 3,0%
same,% Lost (of total dose administered),[2]; Day 4,0%
same,% Lost (of total dose administered),[2]; Day 5,0%
same,% Lost (of total dose administered),[2]; Day 6,0%
same,% Lost (of total dose administered),[2]; Day 7,0%
same,Dose remaining in the eye,[2]; after 3 hours,Less than 15%
same,EGF available at the conjunctival site,[2]; one day after administration,substantially no EGF was available
same,Half life of EGF retention in the eye,[2]; [3],1 h
same,Half-life of EGF disappearance from the eye,[2]; [3],1.0 h
same,Half life of EGF retention in the eye,"[2]; rabbit, subconjunctival injection, listed as unencapsulated EGF",1.0 h
same,Rate constant of EGF disappearance from the eye,"[2]; rabbit, subconjunctival, fit of loglinear portion after initial burst",0.69 h⁻¹
